Results: the supplement of paper PMC9112550, “Optimization of the antimicrobial peptide Bac7 by deep mutational scanning” (BMC Biology, 2022)

test system: Escherichia coli TOP10; test: shrunken log2 fold change of peptide-encoding DNA abundance (4.5 h post-induction vs induction); higher = less antimicrobial activity (less host growth inhibition); settings: time post-induction: 4.5 h; library: site-saturation at positions 5, 18, 19, 20
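Note: peptides expressed intracellularly from a pBAD plasmid library in pooled LB shake-flask culture, induced with 0.3% L-arabinose, DNA abundance read by NGS, three biological replicates, DESeq2 with apeglm shrinkage.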

Sequence	shrunken log2 fold change
RRIRFRPPRLPRPRPRPVACPRP	-0.347
RRIRTRPPRLPRPRPRPYDKPRP	-0.389
RRIRGRPPRLPRPRPRPAPMPRP	1.1
RRIRTRPPRLPRPRPRPIDCPRP	0.0429
RRIRSRPPRLPRPRPRPSQQPRP	0.0577
RRIRFRPPRLPRPRPRPVCQPRP	0.109
RRIRLRPPRLPRPRPRPPYCPRP	-0.0882
RRIRWRPPRLPRPRPRPNRKPRP	-0.239
RRIRARPPRLPRPRPRPGFKPRP	-0.02
RRIRNRPPRLPRPRPRPQAHPRP	-0.163
RRIRARPPRLPRPRPRPKPWPRP	0.823
RRIRTRPPRLPRPRPRPYRFPRP	-0.0191
RRIRIRPPRLPRPRPRPCFVPRP	-0.422
RRIRMRPPRLPRPRPRPIHSPRP	-0.01
RRIRNRPPRLPRPRPRPWNEPRP	-0.233
RRIRPRPPRLPRPRPRPHMAPRP	-0.276
RRIRLRPPRLPRPRPRPIHDPRP	-0.302
RRIRTRPPRLPRPRPRPDTLPRP	0.00154
RRIRGRPPRLPRPRPRPKLGPRP	1.12
RRIRTRPPRLPRPRPRPCFHPRP	-0.638
RRIRSRPPRLPRPRPRPHFKPRP	-0.383
RRIRPRPPRLPRPRPRPWDSPRP	-0.456
RRIRQRPPRLPRPRPRPIAHPRP	-0.148
RRIRQRPPRLPRPRPRPKDLPRP	-0.0616
RRIRRRPPRLPRPRPRPICMPRP	0.296

Sequence	shrunken log2 fold change
RRIRIRPPRLPRPRPRPFYKPRP	-0.0824
RRIRERPPRLPRPRPRPTFIPRP	-0.291
RRIRPRPPRLPRPRPRPQDEPRP	0.0996
RRIRQRPPRLPRPRPRPADPPRP	0.209
RRIRGRPPRLPRPRPRPNVFPRP	0.27
RRIRWRPPRLPRPRPRPTFQPRP	0.131
RRIRNRPPRLPRPRPRPPHQPRP	0.0134
RRIRMRPPRLPRPRPRPYMWPRP	-0.38
RRIRHRPPRLPRPRPRPGYAPRP	-0.163
RRIRYRPPRLPRPRPRPKRWPRP	0.165
RRIRGRPPRLPRPRPRPHSIPRP	0.169
RRIRMRPPRLPRPRPRPCIAPRP	0.099
RRIRWRPPRLPRPRPRPDGPPRP	0.199
RRIRNRPPRLPRPRPRPYLRPRP	-0.0191
RRIRDRPPRLPRPRPRPLTCPRP	0.254
RRIRNRPPRLPRPRPRPNSGPRP	-0.0638
RRIRLRPPRLPRPRPRPYCRPRP	-0.256
RRIRSRPPRLPRPRPRPNYLPRP	-0.071
RRIRRRPPRLPRPRPRPTGAPRP	0.633
RRIRVRPPRLPRPRPRPRKQPRP	0.383
RRIRDRPPRLPRPRPRPRSAPRP	0.321
RRIRRRPPRLPRPRPRPVHMPRP	2.19
RRIRERPPRLPRPRPRPMDTPRP	-0.501
RRIRERPPRLPRPRPRPSHAPRP	-0.0485
RRIRLRPPRLPRPRPRPSRPPRP	0.233

Sequence	shrunken log2 fold change
RRIRDRPPRLPRPRPRPKRCPRP	0.0311
RRIRRRPPRLPRPRPRPHTMPRP	-0.0621
RRIRWRPPRLPRPRPRPRKQPRP	-0.0611
RRIRTRPPRLPRPRPRPLMDPRP	-0.0405
RRIRKRPPRLPRPRPRPQGQPRP	-0.00726
RRIRNRPPRLPRPRPRPAQRPRP	-0.0476
RRIRERPPRLPRPRPRPNTMPRP	-0.122
RRIRERPPRLPRPRPRPMVYPRP	-0.119
RRIRVRPPRLPRPRPRPMRGPRP	0.444
RRIRARPPRLPRPRPRPDQNPRP	0.489
RRIRWRPPRLPRPRPRPTALPRP	0.257
RRIRKRPPRLPRPRPRPYVAPRP	0.111
RRIRLRPPRLPRPRPRPDWKPRP	0.0269
RRIRHRPPRLPRPRPRPGCKPRP	0.229
RRIRGRPPRLPRPRPRPCSPPRP	0.0454
RRIRTRPPRLPRPRPRPDKQPRP	0.0419
RRIRWRPPRLPRPRPRPNLKPRP	-0.0669
RRIRFRPPRLPRPRPRPSVEPRP	-0.18
RRIRIRPPRLPRPRPRPWPAPRP	-0.768
RRIRSRPPRLPRPRPRPYGLPRP	-0.0943
RRIRVRPPRLPRPRPRPARHPRP	0.287
RRIRIRPPRLPRPRPRPMVIPRP	-0.154
RRIRHRPPRLPRPRPRPNALPRP	0.0224
RRIRMRPPRLPRPRPRPRWVPRP	0.4
RRIRWRPPRLPRPRPRPITDPRP	-0.15
